Measurements published in patent US20260265354A1 (JIANGSU MABWELL HEALTH PHARMACEUTICAL R AND D, published 2026).
Substitutions are numbered along the chain they refer to.

B1: Antibody R012 (antibody, V domains shown)
VH: SKSVEESGGRLVTPGTPLTLTCTVSGFSLSTYAMSWVRQAPGKGLEYIGIISGRGTTYYASWLKGRFTISKTSTTVDLKITSPTTEDTATYFCARDAGISDVYTGYFNLWGQGTLVTVSS
VL: QPVLAQLPSASAALGASAKLTCTLSSAHRTYTIAWYQQQQGEAPRYLMMLKSDGSYTKGTGVPDRFSGSSSGADRYLIISSVQAADEADYYCGADDSGGYVFGGGTQLTVTG
notes: Rabbit monoclonal antibody from phage display; also called Nectin-4 rabbit monoclonal antibody R012; rabbit antibody R012
B2: Antibody R036 (antibody, V domains shown)
VH: SQSVEESGGRLVTPGTPLTLTCTVSGFSLSSYAMSWVRQAPGKGLEYIGIIGGRGTTYYAIWAKGRFTISKTSTTVDLKITSPTTEDTATYFCARDAGTTYVGTTYVATGYFNLWGQGTLVTVSS
VL: B1 VL with A5T, L7P, R29K, M49I, K58R, A85D
notes: Rabbit monoclonal antibody from phage display; also called Nectin-4 rabbit monoclonal antibody R036; rabbit antibody R036
B3: Antibody MM11 (antibody, mouse IgG1, kappa, V domains shown)
VH: DVQLQESGPGLVKPSQSLSLTCSVTGYSITSNFYWNWIRQFPGNRLEWMGYISYDGSNNYNPSLKNRISISRDTSKNQFFLKLNSVTTEDTATYYCVRADYWGQGTLVTVSA
VL: DTVMTQTPLSLPVSLGDQASISCRSSQSLESSDGHAYLNWYLQKPGQSPQLLIYRVSNRFSGVLHRFSGSGSGTDFTLKISRVEAEDLGVYFCLQFTHVPFTFGSGTKLEIKR
notes: Mouse monoclonal antibody from hybridoma; also called Nectin-4 mouse monoclonal antibody MM11; mouse antibody MM11

target: T1, Nectin-like-4 (UniProt Q8NFZ8 21-324, limits assumed); assay: ELISA, coated antigen, antibody at 10 ng/ml
T1 construct: Bought recombinant protein; also called CADM4; IgSF4C
T1 sequence (looked up): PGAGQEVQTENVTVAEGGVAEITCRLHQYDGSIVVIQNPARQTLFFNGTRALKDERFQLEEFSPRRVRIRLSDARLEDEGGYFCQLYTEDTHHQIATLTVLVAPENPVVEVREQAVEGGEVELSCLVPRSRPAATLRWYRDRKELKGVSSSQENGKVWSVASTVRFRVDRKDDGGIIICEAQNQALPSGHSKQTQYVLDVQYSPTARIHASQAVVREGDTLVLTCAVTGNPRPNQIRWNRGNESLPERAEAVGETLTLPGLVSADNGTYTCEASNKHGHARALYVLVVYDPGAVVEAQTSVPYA
Procedure: (§1) Coating: Nectin-1, Nectin-2, Nectin-3, Nectin-4, Nectin-like-1, Nectin-like-2, Nectin-like-3, Nectin-like-4, and Nectin-like-5 were diluted to 5 μg/ml in coating buffer (carbonate buffer, pH 9.6) respectively. A 96-well plate was coat with 100 μl per well and incubated overnight at 2-8° C.;
(§2) Sample loading: The plate was taken out, patted dry, and washed twice with 200 μl/well of PBST, then patted dry. The Nectin-4 antibodies prepared in Example 1 (antibody MM11, antibody R012, and antibody R036) were diluted with 1% BSA/PBST to concentrations of 10 μg/ml, 1 μg/ml, 100 ng/ml, and 10 ng/ml, respectively. 1% BSA/PBST solution for dilution was set as a blank control. 100 μl per well was added to the 96-well plate, and incubated at room temperature for 2 hours;
(§3) Reaction termination and plate reading: 100 μl/well of 1 mol/L H3PO4 was added to terminate the reaction and the plated was read. The absorbances of wells in the plate at 450 nm with 650 nm as reference wavelength were read and recorded as OD_{450 nm-650 nm}.

First: B1
Second: B2
The OD detection value of the first is higher: 0.008 OD450 nm-650 nm for the first, 0.007 OD450 nm-650 nm for the second.

For B3, the OD detection value was 0.004 OD450 nm-650 nm.

target: T2, Nectin-2 (UniProt Q92692 32-360, limits assumed); assay: ELISA, coated antigen, antibody at 10 ng/ml
T2 construct: Bought recombinant protein; also called CD112; PVRL-2
T2 sequence (looked up): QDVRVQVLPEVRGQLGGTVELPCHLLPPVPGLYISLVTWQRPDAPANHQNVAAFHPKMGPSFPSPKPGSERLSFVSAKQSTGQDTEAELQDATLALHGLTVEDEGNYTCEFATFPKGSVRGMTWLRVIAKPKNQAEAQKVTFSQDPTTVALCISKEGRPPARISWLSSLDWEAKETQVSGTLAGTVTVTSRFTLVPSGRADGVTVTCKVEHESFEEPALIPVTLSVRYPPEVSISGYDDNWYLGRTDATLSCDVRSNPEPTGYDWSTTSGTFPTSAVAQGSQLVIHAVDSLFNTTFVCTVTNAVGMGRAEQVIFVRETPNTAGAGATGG
Procedure: as §1, §2, §3

First: B1
Second: B2
The OD detection value of the first is higher: 0.008 OD450 nm-650 nm for the first, 0.007 OD450 nm-650 nm for the second.

For B3, the OD detection value was 0.014 OD450 nm-650 nm.
